Source: patent US9844546B2, “Antibody against human HIF hydroxylase” (OXFORD UNIVERSITY INNOVATION LIMITED, priority 2001, dated 2017)
“Also recorded” adds a separate entry of the source.

Target: T1, HIF-1α/pVHL interaction (Homo sapiens, UniProt P40337)
T1 construct: made in house; host or cells: TNT rabbit reticulocyte lysate (Promega), in vitro transcription/translation
Test: Polypeptide blocking assay of HIF-1α and pVHL.HA IVTT mixture, anti-HA immunoprecipitation
Type: binding
Experimental: Further studies were performed using synthetic polypeptides as inhibitors of the HIF-1α/pVHL interaction (23). […] Results for a series of polypeptides derived from this domain are summarized in FIG. 1B and implicate a similar minimal interaction domain. […] This polypeptide comprises HIF-1α polypeptide residues 556 to 574 and its ability to block binding following exposure to a variety of direct oxidation conditions was assessed.
We synthesized a polypeptide (HIF-1α residues 556-574), containing a trans-4-hydroxy-S-proline residue at position 564 (19:Pro564Hyp), since the trans-4-hydroxylation is the commonest enzymatic proline oxidation (25). A polypeptide blocking assay was carried out using the 19:Pro564Hyp modified polypeptide and, as a control, the unmodified polypeptide without the trans-4-hydroxylation (19:WT). The 19:WT polypeptide was either incubated with cell extract before the binding assay or was untreated. The 19:Pro564Hyp polypeptide was added to a mixture of HIF-1α and pVHL-HA IVTTs at a concentration of 1, 0.25, 0.05 or 0.01 μM and the cell extract treated or untreated 19:WT polypeptide at a concentration of 0.5 μM. Interaction of HIF-1α with pVHL was then assayed by anti-HA immunoprecipitation. […] A pVHL capture assay was then carried out using biotinylated synthetic polypeptides. The same polypeptides, 19:Pro564Hyp and 19:WT were assessed for the ability to capture wild type or mutant (Pro86His) pVHL. […] In both cases capture was specific for wild type, as opposed to mutant, pVHL.
• 1. G. L. Semenza, Genes Dev 14, 1983-91. (2000). • 2. N. V. Iyer, et al., Genes Dev. 12, 149-162 (1997). • 3. E. Maltepe, J. V. Schmidt, D. Baunoch, C. A. Bradfield, M. C. Simon, Nature 386, 403-407 (1997). • 4. G. L. Wang, B.-H. Jiang, E. A. Rue, G. L. Semenza, Proc. Natl. Acad. Sci. USA 92, 5510-5514 (1995). • 5. S. Salceda, J. Caro, J. Biol. Chem. 272, 22642-22647 (1997). • 6. L. E. Huang, J. Gu, M. Schau, H. F. Bunn, Proc. Natl. Acad. Sci. USA 95, 7987-7992 (1998). • 7. M. S. Wiesener, et al., Blood 92, 2260-2268 (1998). • 8. P. H. Maxwell, et al., Nature 399, 271-275 (1999). • 9. K. Iwai, et al., Proc. Natl. Acad. Sci. USA 96, 12436-12441 (1999). • 10. J. Lisztwan, G. Imbert, C. Wirbelauer, M. Gstaiger, W. Krek, Genes Dev 13, 1822-33 (1999). • 11. M. E. Cockman, et al., J Biol Chem (2000). • 12. M. Ohh, et al., Nat Cell Biol 2, 423-7. (2000). • 13. T. Kamura, et al., Proc Natl Acad Sci USA 97, 10430-5. (2000). • 14. K. Tanimoto, Y. Makino, T. Pereira, L. Poellinger, Embo J 19, 4298-309. (2000). • 15. M. A. Goldberg, S. P. Dunning, H. F. Bunn, Science 242, 1412-1415 (1988). • 16. G. L. Wang, G. L. Semenza, Blood 82, 3610-3615 (1993). • 17. G. L. Semenza, Cell 98, 281-284 (1999). • 18. Hypoxia (<0.1% oxygen) was obtained in a workstation with O2, CO2 and temperature control (Ruskinn Technologies, Leeds, UK). For hypoxic harvest, buffers were preincubated in the chamber overnight. RCC4-VHL.HA, labelling conditions and co-immunoprecipitation assays have been described previously (11); in the current study 12.5 μM MG132 was used for proteasomal inhibition. For standard harvest, the cells were removed from the chamber after hypoxic exposure, prior to cell lysis. Co-immunoprecipitation assays on all lysates were performed at 4° C. under ambient oxygen conditions. […] When programming in hypoxia, reaction mix was preincubated in the workstation for 10 minutes before addition of the DNA template. […]

T1 sequence (P40337 whole entry): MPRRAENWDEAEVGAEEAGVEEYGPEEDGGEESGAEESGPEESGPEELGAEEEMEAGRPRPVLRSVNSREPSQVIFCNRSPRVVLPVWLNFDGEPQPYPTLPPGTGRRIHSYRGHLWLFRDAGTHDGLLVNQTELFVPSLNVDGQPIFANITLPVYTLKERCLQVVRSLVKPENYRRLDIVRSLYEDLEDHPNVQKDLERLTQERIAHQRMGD

Row | Substance | blocking of HIF-1α/pVHL interaction by polypeptide not exposed to cell extract (untreated polypeptide) | blocking of HIF-1α/pVHL interaction by polypeptide after exposure to cell extract (cell extract supplemented with Fe(II))
1 | 19:Pro564Hyp: polypeptide (HIF-1α residues 556-574) containing a trans-4-hydroxy-S-proline residue at position 564 | highly effective at inhibiting the HIF-1α/pVHL interaction; also recorded: blocked the HIF-1α/pVHL interaction without the need for exposure to cell extract | –
2 | 19:WT: polypeptide comprising HIF-1α residues 556 to 574 | – | blocking activity
